Measurements reported in the DeepSol protein solubility set.

Assay: soluble on expression in E. coli; label from the status in PepcDB or PDB records

Sequence	soluble on expression in E. coli
GASSLKDEVPTETSEDFGFKFLGQKQILPSFNEKLPFASLQNLDISNSKSLFVAASGSKAVVGELQLLRDHITSDSTPLTFKWEKEIPDVIFVCFHGDQVLVSTRNALYSLDLEELSEFRTVTSFEKPVFQLKNVNNTLVILNSVNDLSALDLRTKSTKQLAQNVTSFDVTNSQLAVLLKDRSFQSFAWRNGEMEKQFEFSLPSELEELPVEEYSPLSVTILSPQDFLAVFGNVISETDDEVSYDQKMYIIKHIDGSASFQETFDITPPFGQIVRFPYMYKVTLSGLIEPDANVNVLASSCSSEVSIWDSKQVIEPSQDSERAVLPISEETDKDTNPIGVAVDVVTSGTILEPCSGVDTIERLPLVYILNNEGSLQIVGLFHVAAIKS	soluble
MAHHHHHHMKGVIFCLVVLLWRQAWVSSKSHKCDFTKEKYLLSGEKEVSCEIDANPSDDITFICPNKIDSLCFHTVNISKNINQNKSTMSIQDLLYGSVVYGNTLFISPYVRTNTPFYCFCNLDTVTIQKFLKINRFLKDDDELSEADVMKHLKGGNVSEAQADEYLNKALNRFKKMKDLSKFFNDQADNTTKLNLPKSLNIPNDILNYDVYNSSNNRNDIVVKDEVTNKQIISKRGIMSVFVRSNNNVIKGCDFGNNNKNYFSHPISVAGKVNNKVCKIQGKPGELVGFKCAFEENGKVEPPNCFDQVLHKNKVTDLKTLIPGYASYTNKHSSKYPYYLKIPHFVNEQYTIQCKCKSNNSQNEYTFELDIQPGESEVVLNSFKTS	not soluble
MSLLTEVETYVLSIIPSGPLKAEIAQKLEDVFAGKNTDLEALMEWLKTRPILSPLTKGILGFVFTLTVPSERGLQRRRFVQNALNGNGDPNNMDRAVKLYKKLKREITFHGAKEVALSYSTGALASCMGLIYNRMGTVTTEVAFGLVCATCEQIADSQHRSHRQMATITNPLIRHENRMVLASTTAKAMEQMAGSSEQAAEAMEVANQARQMVQAMRTIGTHPNSSAGLRDNLLENLQAYQKRMGVQMQRFK	soluble
MEALLKEAFLEALKATDPYRLTAKHLPPWRPDLVLAVGKAAAPMLQAALDRYGEVPYHLTLPKGQKAPGLKAVFARHPVPDEESVRAAEEVLGLLQGLSPRARVLALLSGGGSALWCAPLGISLEEKRALTEALLKSGASIHEMNAVRKHLSQIKGGRALLATRAKVHVLLLSDVPGDDPSVIASGPFHPDPTTYAEALALLDRYGLAFPGARAVLRQGVEGRLPETLKPQDPALRRLAWRLVGTNLHLLRAAQRFLRARGFRAAVLSDRFGGEARALARFHAELIEAIRAHGVPFRKPLFLLSGGEAQVRVVGRGRGGRNLEFLLALYAHLKTPLYALAADSDGLDGNSGAAGALLTPAVWEKGLDPRPFLEENDSLGFFQEAGTLLKTGPTGTNLNDFRLLLVD	soluble
DITGIATGYRDLDHMTTGLHEEELIILAARPAVGKTAFALNIAQNIGTKLDKTVAIFSLEMGAESLVDRMLAAEGLVESHSIRTGQLTDEEWQKYTIAQGNLANASIYIDDTPGIRITEIRSRSRKLAQETGNLGLILIDYLQLITGTGRENRQQEVSEISRQLKILAKELKVPVIALSQLSRGVEQRQDKRPVLSDI	not soluble
MKEYKRPDMYDKLLPMERIHIEVFEPFNGEAIEGKYSYVLLCRDYRSSFMWLLPLKSTKFKHLIPVVSSLFLTFARVPIFVTSSTLDKDDLYDICEEIASKYGLRIGLGLKSSARFHTGGILCIQYALNSYKKECLADWGKCLRYGPYRFNRRRNKRTKRKPVQVLLSEVPGHNAKFETKRERVIENTYSRNMFKMAGGKGLIYLEDVNTFALANEADNSCNNNGILHNNNIGNDNFEEEVQKQFDLTEKNYIDEYDDLAHDSSEGEFEPNTLTPEEKPPHNVDEDRIESTGVAAPMQGTEEPEKGDQKESDGASQVDQSVEITRPETSYYQTLESPSTKRQKLDQQGNGDQTRDFGTSMEL	not soluble
MSLSISEKPLSELLRPKDFEDFVGQDHIFGNKGILRRTLKTGNMFSSILYGPPGSGKTSVFSLLKRYFNGEVVYLSSTVHGVSEIKNVLKRGEQLRKYGKKLLLFLDEIHRLNKNQQMVLVSHVERGDIVLVATTTENPSFVIVPALLSRCRILYFKKLSDEDLMKILKKATEVLNIDLEESVEKAIVRHSEGDARKLLNTLEIVHQAFKNKRVTLEDLETLLGNVSGYTKESHYDFASAFIKSMRGSDPNAAVYYLVKMIEMGEDPRFIARRMIIFASEDVGLADPNALHIAVSTSIAVEHVGLPECLMNLVECAVYLSLAPKSNSVYLAMKKVQELPVEDVPLFLRNPVTEEMKKRGYGEGYLYPHDFGGFVKTNYLPEKLKNEVIFQPKRVGFEEELFERLRKLWPEKYGGESMAEVRKELEYKGKKIRIVKGDITREEVDAIVNAANEYLKHGGGVAGAIVRAGGSVIQEESDRIVQERGRVPTGEAVVTSAGKLKAKYVIHTVGPVWRGGSHGEDELLYKAVYNALLRAHELKLKSISMPAISTGIFGFPKERAVGIFSKAIRDFIDQHPDTTLEEIRICNIDEETTKIFEEKFSEGHHHHHH	soluble
AHHHHHHGSPTWEELYKNAIEKAIKSVPKVKGVLLGYNTNIDAIKYLDSKDLEERIIKAGKEEVIKYSEELPDKINTVSQLLGSILWSIRRGKAAELFVESCPVRFYMKRWGWNELRMGGQAGIMANLLGGVYGVPVIVHVPQLSRLQANLFLDGPIYVPTLENGEVKLIHPKEFSGDEENCIHYIYEFPRGFRVFEFEAPRENRFIGSADDYNTTLFIREEFRESFSEVIKNVQLAILSGLQALTKENYKEPFEIVKSNLEVLNEREIPVHLEFAFTPDEKVREEILNVLGMFYSVGLNEVELASIMEILGEKKLAKELLAHDPVDPIAVTEAMLKLAKKTGVKRIHFHTYGYYLALTEYKGEHVRDALLFAALAAAAKAMKGNITSLEEIREATSVPVNEKATQVEEKLRAEYGIKEGIGEVEGYQIAFIPTKIVAKPKSTVGIGDTISSSAFIGEFSFTL	not soluble
MEKSEGGDQPESAGEKEQVHQGADQQVQREKRRRSVSPDGGDVGSVKMADVVLEGASDVAVTKKRKITEEAAAAAKVNSEAITSATGPNTSTQAAASANEEDDKDKEDDKDAKKKKNRCGECRKKVGLTGFQCRCGGLYCAVHRYSDKHNCTFDYREHGAQEIRRNNPVVVGEKIQKILEHHHHHH	not soluble
SLKITDVQLTAIGMPRLTGFVNKHVIVQLFTDEGIEGIGEMSDFSHLPKYAVDIVDLERTLKQILVGKNPFDIAPINTELNGNFPEAMYYYEKGSFIRNGVDTALYDLCAKALGVSVSDLLGGRQREKIKVCFPIFRHRFMDEVEANLELVKKQYEKGFDVFRLYVGKNVDADEAFLAGVYNEFGGKVKVKSLDFSHLLDWKEALRITRRLAKYPIDLVESPALRNDFAGLHHFRMRCELPVSEHVWSLRQQSEMIKHDSVDIFNIAPVFIGGITQARKAADAAAVAEKSVLIGTTQELSIGTTAMAYFGSTLDHLNYISDPTGPELYVGDVVKNKVNYENGYLHLPERSTIGLGMELDWEKVEQYRVESLNWEDVSVHQLQDRTAQTRA	not soluble
MAHHHHHHMHNSVPASNTCSPFREETVSKRGKRSRGTGGDDKITRGTCSQPFSVITLPPGKLLEWLVCSPCRVYDVNLPRSRNNDNNISSLQCAVLPNFFVEYGGRSYSCVAKVCKPQLRKVLLRALAAVRQEMGSVDDIPHDSLLVVAVSPINAFSSECIHDASRTAMPRAREGCKIVGLCVARELSAPHRMHCESNWSHEKSEASGVGAAVQEGLGDCWEEDATRVGGTNNVRKAFCGVQLVWVADCYRRHGVAKVLVDTARRHISYGFEVPVERVAFSEPTSLGKLFAKSYSGRPDFLI	soluble
MGIYQWRDKKKPSGGKRRYYYKVKRKYAAGRPPTYTTLSAAEEEERKPVRARGGSYKIKAKKVAFAVVSNPKTGEARKARILRIVETPAHREYARRGIIVKGAVIDTTLGRAVVTSRPGQEGVVNAVLLEEQGQKQLEHHHHHH	soluble
MKANQLDILIVPGYKGSDPDHWQTRWEKKLSTARRVQQTHWSKPICEEWVNEVKIAIAQSQKPIVIIAHSLGVPTTIHATLKNAEKVRGAFFVAPPDVSNEKIRPKHLMTFGPYHCKKLSFPSVVIASRNDEFCQFSVAEKLAGDWGALFVDAGLSGHINVESGHGPWPEGLMVFSHFLAKI	not soluble
MSLKIIIAGAGNVGTHLAKLLSREKQDIILMDDDEEKLSALSANFDLLTVTASPSSISGLKEVGVKEADLFIAVTPDESRNMTACMLATNLGAKKTVARIDNYEYLLPKNKEFFRKLGVDSLIYPEMLAAKEIVSSMRMSWVRQWWEFCGGALILIGTKMREKAEILNIPLHQLGAPDIPYHVVAIKRGTETIIPRGDDVIKLHDIVYFTTTRKYIPYIRKIAGKEDYADVRNVMIMGGSRIAVRTAQYVPDYMQVKIVDNDINRCNRLTELLDDKTMIINGDGRDMDLLIEEGLKNTEAFVALTDNSETNILACLAAKRMGVEKTVAEVENIDYIGMAESLDIGTVINKKMIAASHIYQMMLDADVSNVKCLTFANADVAEFTVPAGAKITKNLIKDLGLPKGTTIGGMIRNGEGVLVTGDTLIRPGDHVVVFCLSMMIKKIEKFFNEGHHHHHH	soluble
MSERILPSTLRGVTNGQKEVTASVGERVPLLPRRFSARPQGNQEAQERTAVKCEQVRYAIQEVIGRGAFGEVSSAEVVGTRDLVAIKRVIHDGRLRQRELTLMRDHLGPNTQQGGVSSLDVGNGVGAHATSVTGSNGEEANGTTAIDGLESWNMPTIVPYHPCVVKLLDHFFASDPSGVQYLFMVMDYIPLDVRRLHHMFLRQREQQMPIILVKVIMFQLARALAFLHARGICHRDVKPNNILVDQETGVVKLCDFGSAKKMQAVGGEGPREKNVPYIFSRYYRAPELLLGSQYYHFHVDMWAFGCVLAELLCGKVLFKGSSSTMDQLVEIIKVLGKPSERELFALNPQSAGSALIRTWGDSHNASQLSPTPSGPLPSSNSANADYMQRRSAPRVKSLLWVEVLPPNTSQAALSLIEQLLRYTPEERLTSAEVLEHVFFDELFSDDARLPNGAPLPASMFQVTREEAEILPPWLLERMAAAEGVAKGRELNQSATAPENAI	not soluble
MKQKEMIVMSILVKSVSFDDYRNTQLNEKCANFLQSAEMAKLQESQDHIEKVEALVFERDGLRVAQAIVVYKKSFRVFKKALLLHGPLLDYHSSCWFDREILEALILYLRKKNIATLSIHPYLTNLIRNEKLENIEVDKARDVLEVFETLGFEHSLDSEQSLVVNQMFVKSIESFASSDEILAAFSPSLKRDLKKFTALNVKTEELDEHQLDQFYDILSRTAERKGFSVHPLVYFQNLKKYFGKSAKFMLAYLDCPAYLAYLDENIQSFEAKIQDLKEGPQKKRTKGQIADAEDQLRSYYKRLEQFKSYQIKTDKLPLSAYLFMDYGPEIVSFYGGNDEAYLNFGGAVLLHWEMLKYAKSKSKKHFNFYGTIETEAASSGKGNFNFKRQFGGQLETLVGSFDKTLNPFYDILKKTLGKD	not soluble
MSLSTYTTGELAKHVGVSVRTIQYYDQRGLLTPMTTAGGRREYTAQDIERLQLILVLKSMGLKLAAIKDILNSPNATDVLQLLLTEQVQRLRQDQAATTTQLKTVIAVQKALAVSGPFPLESIHDMDQLMTNQQREGHHHHHH	not soluble
MSSPKISIIIPVYMAESYLHRCVDSIITQTFTDWELLLVDDGSPDHSGELCEKYASAYKSRIKAFHKPNGGVASAREFGMQQARGEYSIHVDPDDWIDSNTLEELYQQAVKEQADMVICDFMMEYPNRQIHNCQKPQLLDSSSFMHQLLQQERHGSLCNKLIRTELYHKYQLHFPEKMICWEDLYICCSILLHGCKLAYVPHALYHYDFYTNDNSMVRHTDMRGLQAQIDFCRLMQAKISPEYLPELNELKGITLITAFRNQLLNEQAIRSLFPEINDWYVTRYGHDYEKSNYYGLTLVLRGYNFKTARRRMFVAKFLVQIKNKITRML	not soluble
